The subject of the data set is Escherichia coli TOP10. The data set is described as follows: shrunken log2 fold change of peptide-encoding DNA abundance (4.5 h post-induction vs induction); higher = less antimicrobial activity (less host growth inhibition). Conditions: time post-induction: 4.5 h; library: site-saturation at positions 5, 18, 19, 20.
As for RRIRPRPPRLPRPRPRPFFSPRP, the “shrunken log2 fold change” value is -0.0993.

RRIRERPPRLPRPRPRPRRCPRP: the “shrunken log2 fold change” value came to 0.0702.

Take RRIRKRPPRLPRPRPRPHIRPRP: the “shrunken log2 fold change” value was 0.0177.

As to RRIRFRPPRLPRPRPRPYRHPRP, the “shrunken log2 fold change” value is -1.08.

On to RRIRMRPPRLPRPRPRPSVMPRP, for which the “shrunken log2 fold change” value was -0.194.

For RRIRDRPPRLPRPRPRPDSIPRP, the “shrunken log2 fold change” value came out at 0.0726.

Take RRIRTRPPRLPRPRPRPQKGPRP: the “shrunken log2 fold change” value was -0.00821.

On to RRIRGRPPRLPRPRPRPFWRPRP, for which the “shrunken log2 fold change” value turned out to be 0.297.

Turning to RRIRARPPRLPRPRPRPWGGPRP, the “shrunken log2 fold change” value worked out at 0.605.

Regarding RRIRERPPRLPRPRPRPDDGPRP, the “shrunken log2 fold change” value is -0.269.

As for RRIRCRPPRLPRPRPRPFLCPRP, the “shrunken log2 fold change” value is -0.786.

Regarding RRIRARPPRLPRPRPRPAIFPRP, the “shrunken log2 fold change” value was 0.562.

In the case of RRIRYRPPRLPRPRPRPGECPRP, the “shrunken log2 fold change” value is -0.489.

For the sequence RRIRQRPPRLPRPRPRPPCHPRP, the “shrunken log2 fold change” value turned out to be 0.0591.

For the sequence RRIRDRPPRLPRPRPRPRFWPRP, the “shrunken log2 fold change” value was 0.935.

On to RRIRDRPPRLPRPRPRPYSNPRP, for which the “shrunken log2 fold change” value is -0.045.

Take RRIRHRPPRLPRPRPRPPYMPRP: the “shrunken log2 fold change” value is -0.539.

In the case of RRIRKRPPRLPRPRPRPENYPRP, the “shrunken log2 fold change” value is -0.0275.

Regarding RRIRLRPPRLPRPRPRPEQSPRP, the “shrunken log2 fold change” value is -0.0314.

Take RRIRLRPPRLPRPRPRPMMIPRP: the “shrunken log2 fold change” value was -0.203.

RRIRSRPPRLPRPRPRPMIWPRP: the “shrunken log2 fold change” value turned out to be 0.027.

For the sequence RRIRGRPPRLPRPRPRPHGNPRP, the “shrunken log2 fold change” value is 0.365.

With RRIRTRPPRLPRPRPRPYSGPRP, the “shrunken log2 fold change” value is -0.00196.

With RRIRWRPPRLPRPRPRPGMYPRP, the “shrunken log2 fold change” value stood at 0.0165.

As for RRIRLRPPRLPRPRPRPFPWPRP, the “shrunken log2 fold change” value was -0.0836.

For RRIRGRPPRLPRPRPRPIIIPRP, the “shrunken log2 fold change” value was -0.167.

As to RRIRMRPPRLPRPRPRPFEEPRP, the “shrunken log2 fold change” value came to 0.0197.

RRIRNRPPRLPRPRPRPRDTPRP: the “shrunken log2 fold change” value was -0.457.

Take RRIRNRPPRLPRPRPRPCDLPRP: the “shrunken log2 fold change” value is -0.0345.

On to RRIRCRPPRLPRPRPRPAWVPRP, for which the “shrunken log2 fold change” value worked out at 0.316.

Take RRIRSRPPRLPRPRPRPQWIPRP: the “shrunken log2 fold change” value was -0.425.

Regarding RRIRLRPPRLPRPRPRPGHMPRP, the “shrunken log2 fold change” value is -0.236.

RRIRARPPRLPRPRPRPEMMPRP: the “shrunken log2 fold change” value came to 1.12.

In the case of RRIRLRPPRLPRPRPRPCWWPRP, the “shrunken log2 fold change” value was found to be 0.26.

As to RRIRSRPPRLPRPRPRPGKNPRP, the “shrunken log2 fold change” value was -0.166.

Turning to RRIRNRPPRLPRPRPRPMLIPRP, the “shrunken log2 fold change” value was -0.0638.

Consider RRIRSRPPRLPRPRPRPTAAPRP, for which the “shrunken log2 fold change” value worked out at 1.03.

RRIRKRPPRLPRPRPRPRMLPRP: the “shrunken log2 fold change” value is 0.588.

Take RRIRRRPPRLPRPRPRPSETPRP: the “shrunken log2 fold change” value stood at 0.493.

Consider RRIRYRPPRLPRPRPRPRLDPRP, for which the “shrunken log2 fold change” value was -0.176.

Consider RRIRTRPPRLPRPRPRPPHAPRP, for which the “shrunken log2 fold change” value worked out at 0.312.

RRIRKRPPRLPRPRPRPKIQPRP: the “shrunken log2 fold change” value was found to be 0.113.

For RRIRLRPPRLPRPRPRPIIKPRP, the “shrunken log2 fold change” value is -0.527.

Turning to RRIRYRPPRLPRPRPRPESTPRP, the “shrunken log2 fold change” value was -0.00514.

Take RRIRIRPPRLPRPRPRPCGIPRP: the “shrunken log2 fold change” value was -0.222.

Take RRIRVRPPRLPRPRPRPTMKPRP: the “shrunken log2 fold change” value was -0.461.

Consider RRIRGRPPRLPRPRPRPSHRPRP, for which the “shrunken log2 fold change” value was -0.0458.

Consider RRIRARPPRLPRPRPRPGGYPRP, for which the “shrunken log2 fold change” value was found to be 0.116.

RRIRSRPPRLPRPRPRPQKRPRP: the “shrunken log2 fold change” value was -0.343.

As for RRIRDRPPRLPRPRPRPWEAPRP, the “shrunken log2 fold change” value is -0.0176.

With RRIRARPPRLPRPRPRPQMCPRP, the “shrunken log2 fold change” value worked out at 0.00812.

With RRIRPRPPRLPRPRPRPGKYPRP, the “shrunken log2 fold change” value was -0.132.

With RRIRDRPPRLPRPRPRPLQYPRP, the “shrunken log2 fold change” value was -0.373.

For the sequence RRIRCRPPRLPRPRPRPTVPPRP, the “shrunken log2 fold change” value was determined as 0.247.

Consider RRIRDRPPRLPRPRPRPMNWPRP, for which the “shrunken log2 fold change” value turned out to be 0.0175.

Regarding RRIRIRPPRLPRPRPRPVGYPRP, the “shrunken log2 fold change” value came to 0.0961.

As for RRIRGRPPRLPRPRPRPGNCPRP, the “shrunken log2 fold change” value is 0.131.

With RRIRYRPPRLPRPRPRPTFSPRP, the “shrunken log2 fold change” value is -0.383.

For the sequence RRIRERPPRLPRPRPRPAGQPRP, the “shrunken log2 fold change” value was -0.195.

As for RRIRTRPPRLPRPRPRPDTTPRP, the “shrunken log2 fold change” value is -0.0469.

In the case of RRIRCRPPRLPRPRPRPMSCPRP, the “shrunken log2 fold change” value is -0.0327.

On to RRIRDRPPRLPRPRPRPMFGPRP, for which the “shrunken log2 fold change” value turned out to be 0.12.

On to RRIRSRPPRLPRPRPRPWGLPRP, for which the “shrunken log2 fold change” value was 0.0137.

For the sequence RRIRVRPPRLPRPRPRPCYFPRP, the “shrunken log2 fold change” value was -0.594.

In the case of RRIRKRPPRLPRPRPRPMFWPRP, the “shrunken log2 fold change” value was found to be 0.173.

In the case of RRIRCRPPRLPRPRPRPGCPPRP, the “shrunken log2 fold change” value is 0.239.

As for RRIRYRPPRLPRPRPRPLGPPRP, the “shrunken log2 fold change” value is 0.157.

RRIRTRPPRLPRPRPRPGHTPRP: the “shrunken log2 fold change” value is -0.342.

As to RRIRFRPPRLPRPRPRPPTNPRP, the “shrunken log2 fold change” value worked out at 0.236.

For RRIRKRPPRLPRPRPRPFGGPRP, the “shrunken log2 fold change” value is -0.043.

Take RRIRLRPPRLPRPRPRPDMWPRP: the “shrunken log2 fold change” value was -0.0873.

As for RRIRLRPPRLPRPRPRPHVYPRP, the “shrunken log2 fold change” value was -0.211.

Take RRIRNRPPRLPRPRPRPQWTPRP: the “shrunken log2 fold change” value was -0.0119.

For RRIRPRPPRLPRPRPRPCVFPRP, the “shrunken log2 fold change” value is -0.164.

With RRIRDRPPRLPRPRPRPRGRPRP, the “shrunken log2 fold change” value worked out at 0.614.

Turning to RRIRGRPPRLPRPRPRPPTNPRP, the “shrunken log2 fold change” value is 0.866.

As to RRIRQRPPRLPRPRPRPIYRPRP, the “shrunken log2 fold change” value is -0.0223.

With RRIRKRPPRLPRPRPRPDAVPRP, the “shrunken log2 fold change” value amounted to 0.698.

With RRIRDRPPRLPRPRPRPLHPPRP, the “shrunken log2 fold change” value was 0.286.

For the sequence RRIRNRPPRLPRPRPRPHWTPRP, the “shrunken log2 fold change” value is 0.0333.

RRIRDRPPRLPRPRPRPRLVPRP: the “shrunken log2 fold change” value amounted to 0.314.

In the case of RRIRYRPPRLPRPRPRPTGGPRP, the “shrunken log2 fold change” value was -0.0407.

For the sequence RRIRGRPPRLPRPRPRPRCTPRP, the “shrunken log2 fold change” value came to 0.892.

For RRIRFRPPRLPRPRPRPGPAPRP, the “shrunken log2 fold change” value was determined as 0.544.

On to RRIRWRPPRLPRPRPRPEMTPRP, for which the “shrunken log2 fold change” value is -0.0833.

With RRIRFRPPRLPRPRPRPVPWPRP, the “shrunken log2 fold change” value was determined as 0.0558.

On to RRIRGRPPRLPRPRPRPKCQPRP, for which the “shrunken log2 fold change” value stood at 0.581.

Take RRIRWRPPRLPRPRPRPASKPRP: the “shrunken log2 fold change” value came to 0.294.

With RRIRERPPRLPRPRPRPVFYPRP, the “shrunken log2 fold change” value is -0.437.

Consider RRIRHRPPRLPRPRPRPVCSPRP, for which the “shrunken log2 fold change” value is -0.168.

As to RRIRIRPPRLPRPRPRPHNAPRP, the “shrunken log2 fold change” value was -0.549.

(Values after the supplement of paper PMC9112550, “Optimization of the antimicrobial peptide Bac7 by deep mutational scanning” (BMC Biology, 2022).)
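Note: peptides expressed intracellularly from a pBAD plasmid library in pooled LB shake-flask culture, induced with 0.3% L-arabinose, DNA abundance read by NGS, three biological replicates, DESeq2 with apeglm shrinkage.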
